Values belong to the molecule of their own block, whether it stands above or below them.
Key:
[1] = molecular target: α-glucosidase QsGH13 from Qipengyuania seohaensis sp. SW-135 (Qipengyuania seohaensis sp. SW-135); test: crystal structure; QsGH13 at 10 mg/ml, hanging drop vapour diffusion at 4°C, 0.1 M Tris-HCl pH 8.5, 0.2 M NaCl, 20% PEG 3,350; space group P212121, two monomers per asymmetric unit
QsGH13 = molecular target: T1, QsGH13 (Qipengyuania seohaensis, UniProt A0A8X6EH34); test: residual activity, p-nitrophenol release, absorbance […] nm; assay type: biochemical; settings: product tolerance test, 2 M glucose, substrate pNPαGlu, 20 mM Gly-NaOH pH 10.0, 45 °C
T1 construct: N-terminal His6-SUMO tag cut off with Ulp1; expressed in E. coli BL21(DE3) from pSMT3; dimer; primers encode N-terminus MSGKLP and C-terminus ILETDT (translated from primers)

purified protein = substrate: O=[N+]([O-])c1ccc(O[C@H]2O[C@H](CO)[C@@H](O)[C@H](O)[C@H]2O)cc1; test: purified protein; settings: pH 10.0 (20 mM Gly-NaOH), 45 °C, 0.025-2.0 mM substrate

- stoichiometry N [1]: 2
Molecule: α-glucosidase QsGH13 from Qipengyuania seohaensis sp. SW-135 (enzyme)

Molecule: OC[C@H]1OC(O)[C@H](O)[C@@H](O)[C@@H]1O (stereo partly drawn) [glucose]
- % activity retained at 2 M (QsGH13): 30%

B1: QsGH13 (Qipengyuania seohaensis) (protein)
chain: MSGKLPWWKGAVIYQIYPRSFMDSNGDGIGDLPGIAQRLPHIAELGADAIWISPFFKSPMKDFGYDVSDYCDVDPIFGTLEDFDAVIARSHELGLKVLIDQVYSHTSDDHEWFAESRSNRDNPKAEWYVWADAKPDGSPPSNWQSVFGGPAWTWDARRGQYYLHNFLSSQPQLNLHNREAQQAVLDVMRFWLERGVDGFRIDALNFAMHDPQLRDNPPAPPTDKQRTRPFDFQLKTYNQSHADIPAFIERIRALTDEFDGIFTVAEVGGDDAVREMKAFTEGETHLNSAYGFNFLYAEALTPQLVCSALAEWPEEPDLGWPSWAFENHDAPRALSRWCTPEDRQAFARLKTLLLMSLRGNAILYYGEELGLTQVDIPFDQLHDPEAIANWPLTLSRDGARTPMPWDDSECAGFGSTAPWLPVGDDNRPRSVAAQLGDANSLLKFTRQAIALRKANPALHHGHVVECNHDGDLLELVREAGGQRLRCRFNLGSKPVECDDCEGRTLLAINGAEPTALPPFAAIILETDT
- Km (purified protein): 295.2 ± 32.2 µM

Source: PMC8928221, “Structure and Function Insight of the α-Glucosidase QsGH13 From Qipengyuania seohaensis sp. SW-135” (Frontiers in Microbiology, 2022)
